# Laboratory results published in the DeepSol protein solubility set.
# Experiment: soluble on expression in E. coli; label from the status in PepcDB or PDB records
row,Sequence,soluble on expression in E. coli
1,MSTQPDTSLRATKRLKTRISVEDAATALVLRDGFDNVTVEDICAAAEISKRTFFNYFDSKENAVFGDIQVDILPQLREEFLSHPHEDLPEAVIRLHMNLVFSGKDFDPHTRGEIIRRRKTIRHNNPERSFNYNALYHKVFINFKTLVNEYFEHFPEQRRLGGDVDVEATAVVLSSSYAIRFGFTLWADSPSASFSTLEESCLEALVHLRTINKGL,not soluble
2,ELRAKERKIIRDKEDGLNPQLADRMTLNELYDRFIEQKYDLKPSTKVNYLYMYNHFVRPTFGKRLIGKIKYSDVKKFYYRIILDEEMKANTLDSIHTQLHPAFQMAVRDGLLRQNPTDGLMAEIKKSHIWEDNPRHALTIPQQKAFMDYLKAHREYQGWVPIITVLLGTGMRIGECIGLRWDDLDFEKRIVSVNHTFIYRPDENRKSVKHISTPKTISGRRTIPMIDEVFNAFLDEYEIQKCIGFSSEEIDGYSNFVFVTATGTVYLPNAVNRAIERARVAYNKDEIEIAEKEDREPLIIPHF,not soluble
3,MQEKYNFGKVSSQHKNYSKIETMLRPKGFDKLDHYFRTELDIDLTDETIELLLNSVKAAFGKLFYGAEQRARWNGRDFIALADLNITKALEEHIKNFQKIEQDMGVDELLEYIAFIPPVEMNVGEDLKSEYRNIMGGLLLMHADVIKKATGERKPSREAMEFVAQIVDKVF,soluble
4,MVSKKKALEMIDVIANMFPDAECELKHDNPFELTIAVLLSAQCTDVLVNRVTTELFKKYKTPEDYLAVSDEELMNDIRSIGLYRNKAKNIKKLCQSLIDQFNGEIPQTHKELESLAGVGRKTANVVMSVAFDEPSLAVDTHVERVSKRLGINRWKDNVRQVEDRLCSVIPRDRWNRSHHQLIFFGRYHCLARKPKCDICPLLEDCREGQKRYKASLKEA,not soluble
5,MSLKFAVLVFPGSNCDRDMYNAAIKSGVDAAYVDYRETTLDGFDGVLIPGGFSFGDYLRSGAMASVAPIIKEVKRFAKEGKPVLGVCNGFQILTEIGLLPGALLHNDSHLFISRNETLKITNNQTPFTHLYVKNENVVYPVAHGEGHYYCTDEIYRELNDNNQIILKYTNNPNGSYEDIAGIVNKEGNVCGMMPHPERALETLLGTNSGVKLFESMVKSWREQNEGHHHHHH,soluble
6,GSPGISGGGGGIPVIDGPTQILVRDVSDTVAFVEWTPPRAKVDFILLKYGLVGGEGGKTTFRLQPPLSQYSVQALRPGSRYEVSISAVRGTNESDASSTQFTTEIDAPKNLRVGSRTATSLDLEWDNSEAEAQEYKVVYSTLAGEQYHEVLVPKGIGPTTKTTLTDLVPGTEYGVGISAVMNSKQSIPATMNARTELDSPRDLMVTASSETSISLIWTKASGPIDHYRITFTPSSGISSEVTVPRDRTSYTLTDLEPGAEYIISITAERGRQQSLESTVDAFT,soluble
7,SMLSAASRVVSRAAVHCALRSPPPEARALAMSRPPPPRVASVLGTMEMGRRMDAPASAAAVRAFLERGHTELDTAFMYSDGQSETILGGLGLGLGGGDCRVKIATKANPWDGKSLKPDSVRSQLETSLKRLQCPQVDLFYLHAPDHGTPVEETLHACQRLHQEGKFVELGLSNYASWEVAEICTLCKSNGWILPTVYQGMYNATTRQVETELFPCLRHFGLRFYAYNPLAGGLLTGKYKYEDKDGKQPVGRFFGNSWAETYRNRFWKEHHFEAIALVEKALQAAYGASAPSVTSAALRWMYHHSQLQGAHGDAVILGMSSLEQLEQNLAATEEGPLEPAVVDAFNQAWHLVAHECPNYFR,soluble
8,MSDARLAELAAAVGLQLDWQDANGRPQRVDPEVQRGLLEALGYPAQSPQQIEQSLAALARLREDSANLGLLVGECGQPLEQALGPAGTPGELVYEDGTRIALRLDAEGRLPAQARSGYAQLSLEQREWAVAMAPPSCPSLASLAPGRSRRWGLAAQVYALRRPGDGGLGDSAALEDLLRSAARHGADALAISPLHALAEANGHAYSPYSPSSRLFFNVLHAAPATILGAAAVEQAIRRAGLAAEMARLESLELIDWTAAADLRMRLLRQLHRDFTERASPLRHDLAEFRREAGEALLHHCRFETLQAHLGAGPDWRRWPEPLRRPGEPAVAAFCADHAEEVDFRAFGQWLTQRCLQHAQRQAREAGMAIGLVADLAVGADGGGSQAWSRQEELLAEVNVGAPPDILNQSGQDWGVSAFNPEGLRRHGYRAFREMLRANLAWPGGLRIDHVMGLQRLWLIPRGQPPHAGAYLRYPQRELLRLLALEASRASALVIGEDLGTVPEGLREELARRQVLGTRVLLFERRGERFVPPAQWPADAMATTSTHDLPSLSGWWRGRDIHWRGRAGHRSAEECAADLELRAEERRALAASLEPPVDPDPAAEVPLDACIGYVGATPAPLVLLPLEDALGSLEQPNLPGPGDAHPNWRRRWPENAAQMLGTPQVDRRLRLLERSRRDAEEA,not soluble
